According to paper PMC4830966, “Molecular basis of the STIL coiled coil oligomerization explains its requirement for de-novo formation of centrosomes in mammalian cells” (Scientific Reports, 2016):

B1: WT STIL CCD peptide (STIL amino acids 718-749) (peptide)
peptide: LSPDAYRFLTEQDRQLRLLQAQIQRLLEAQSL
notes: also called WT CCD; STIL coiled coil peptide; source: synthetic peptide

Legend:
[1] = biological target: the molecule itself; assay: SEC; 35 μM WT STIL CCD peptide on Superdex30 analytical column, 25 mM sodium phosphate buffer pH 6.8 (IS = 40 mM)
[2] = biological target: the molecule itself; assay: SEC; 500 μM WT STIL CCD peptide on Superdex30 analytical column, 25 mM sodium phosphate buffer pH 6.8 (IS = 40 mM)
[3] = biological target: the molecule itself; assay: SEC; 250 µl of 100 μM peptide on Superdex30 analytical column, 25 mM sodium phosphate buffer pH 6.8 (IS = 40 mM); comparison of elution profiles

| Protein | stoichiometry N [1] | stoichiometry N [2] | stoichiometry N [3] |
| --- | --- | --- | --- |
| B1 | ~2 | 4 | ~4 |
| LSPDAYRFLTEQDRQLRLEQAQIQRLLEAQSL (source: synthetic peptide) [STIL CCD L736E peptide] | – | – | ~2 |
| ESPDAYRFLTEQDRQLRLLQAQIQRLLEAQSL (source: synthetic peptide) [STIL CCD L718E peptide] | – | – | ~2 |
